These results are taken from article PMC8750365.

In test [1] the target is Endogenous TOP1 of U2OS cells (human (endogenous in U2OS)) (UniProt P11387). The test can be described thus: proximity ligation.
The target in test [2] is Endogenous TOP2A of U2OS cells (human (endogenous in U2OS)) (UniProt P11388). As to the kind of experiment: proximity ligation.
Chain of UniProt P11388 (P11388 whole entry): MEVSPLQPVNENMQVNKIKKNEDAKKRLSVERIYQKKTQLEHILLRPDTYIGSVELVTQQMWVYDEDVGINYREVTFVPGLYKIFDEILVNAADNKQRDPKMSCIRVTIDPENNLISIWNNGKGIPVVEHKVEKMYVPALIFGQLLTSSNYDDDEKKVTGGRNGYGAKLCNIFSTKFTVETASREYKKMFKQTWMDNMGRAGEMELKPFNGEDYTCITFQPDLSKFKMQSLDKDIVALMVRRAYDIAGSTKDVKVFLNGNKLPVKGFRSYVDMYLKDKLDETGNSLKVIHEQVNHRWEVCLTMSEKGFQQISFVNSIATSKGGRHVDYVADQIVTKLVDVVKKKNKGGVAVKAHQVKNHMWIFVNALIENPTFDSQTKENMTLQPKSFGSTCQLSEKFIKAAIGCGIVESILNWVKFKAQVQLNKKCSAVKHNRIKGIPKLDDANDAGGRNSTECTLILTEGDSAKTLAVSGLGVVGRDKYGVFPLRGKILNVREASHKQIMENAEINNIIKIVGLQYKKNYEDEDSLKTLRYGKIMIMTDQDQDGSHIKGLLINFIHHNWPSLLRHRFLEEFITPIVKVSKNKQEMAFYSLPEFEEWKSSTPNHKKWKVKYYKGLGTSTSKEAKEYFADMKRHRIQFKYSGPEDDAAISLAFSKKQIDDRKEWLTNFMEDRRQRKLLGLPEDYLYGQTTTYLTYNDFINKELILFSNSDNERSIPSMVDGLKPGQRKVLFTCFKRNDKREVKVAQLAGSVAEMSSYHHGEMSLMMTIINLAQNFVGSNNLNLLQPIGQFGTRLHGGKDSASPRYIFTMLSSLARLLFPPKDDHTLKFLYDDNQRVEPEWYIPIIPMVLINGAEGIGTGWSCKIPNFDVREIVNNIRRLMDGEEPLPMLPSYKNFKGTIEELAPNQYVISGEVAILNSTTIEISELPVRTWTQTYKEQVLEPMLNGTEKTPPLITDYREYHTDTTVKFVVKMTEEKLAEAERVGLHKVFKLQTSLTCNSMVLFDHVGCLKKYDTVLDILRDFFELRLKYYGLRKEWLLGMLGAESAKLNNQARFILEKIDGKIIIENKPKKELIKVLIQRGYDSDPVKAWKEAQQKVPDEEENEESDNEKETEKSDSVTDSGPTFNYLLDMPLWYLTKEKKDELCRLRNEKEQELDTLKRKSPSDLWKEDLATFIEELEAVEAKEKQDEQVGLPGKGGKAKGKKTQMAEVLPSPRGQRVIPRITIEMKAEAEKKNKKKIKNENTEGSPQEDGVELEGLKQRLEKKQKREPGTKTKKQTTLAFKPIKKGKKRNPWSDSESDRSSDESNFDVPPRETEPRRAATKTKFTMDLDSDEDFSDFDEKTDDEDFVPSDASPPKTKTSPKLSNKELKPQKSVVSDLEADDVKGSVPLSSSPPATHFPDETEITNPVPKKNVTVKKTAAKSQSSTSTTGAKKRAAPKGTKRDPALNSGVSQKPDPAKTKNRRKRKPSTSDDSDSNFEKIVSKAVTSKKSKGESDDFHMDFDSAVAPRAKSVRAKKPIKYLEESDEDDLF

Chain of UniProt P11387 (P11387 whole entry): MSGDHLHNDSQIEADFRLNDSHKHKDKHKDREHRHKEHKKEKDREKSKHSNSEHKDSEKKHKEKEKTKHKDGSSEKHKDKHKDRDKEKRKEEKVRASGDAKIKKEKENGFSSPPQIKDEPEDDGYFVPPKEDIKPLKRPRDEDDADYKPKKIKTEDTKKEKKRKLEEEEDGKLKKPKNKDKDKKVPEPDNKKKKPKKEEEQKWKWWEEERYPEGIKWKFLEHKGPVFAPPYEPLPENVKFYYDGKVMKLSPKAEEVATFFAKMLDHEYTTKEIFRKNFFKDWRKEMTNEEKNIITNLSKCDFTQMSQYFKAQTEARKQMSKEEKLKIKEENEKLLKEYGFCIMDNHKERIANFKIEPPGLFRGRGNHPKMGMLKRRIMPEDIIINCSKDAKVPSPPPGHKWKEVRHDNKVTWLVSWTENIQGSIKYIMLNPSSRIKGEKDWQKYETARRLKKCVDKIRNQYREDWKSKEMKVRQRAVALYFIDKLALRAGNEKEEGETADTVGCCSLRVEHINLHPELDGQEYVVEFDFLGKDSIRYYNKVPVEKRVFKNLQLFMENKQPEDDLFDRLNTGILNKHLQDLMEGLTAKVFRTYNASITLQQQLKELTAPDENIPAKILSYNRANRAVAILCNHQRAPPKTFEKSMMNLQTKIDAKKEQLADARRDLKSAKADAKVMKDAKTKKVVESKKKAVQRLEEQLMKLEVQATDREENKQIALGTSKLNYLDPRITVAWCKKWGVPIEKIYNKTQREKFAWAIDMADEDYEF

As for “Endogenous MYC of U2OS cells (from UniProt P01106 1-454) (natural protein)”, the PLA dots/cell (untreated cells) in test [1] and in test [2] was 60 dots/cell each time.

Take “MYC-EGFP, doxycycline-inducible, in U2OS-MYC-EGFP cells (from UniProt P01106 1-454) (natural protein)”: the PLA dots/cell (with Dox) in test [1] and in test [2] was greater than 80 dots/cell throughout.
